# Source: patent publication US20240025992A1
# Biological target: human CD3 (CD3 epsilon as part of the T cell receptor complex) on cells (human) (UniProt P07766)
# Experiment: flow cytometry on Jurkat cells, 10 nM antibody
# Sequence of human CD3 (CD3 epsilon as part of the T cell receptor complex) on cells (human) (P07766 23-207 limits assumed, one chain of several): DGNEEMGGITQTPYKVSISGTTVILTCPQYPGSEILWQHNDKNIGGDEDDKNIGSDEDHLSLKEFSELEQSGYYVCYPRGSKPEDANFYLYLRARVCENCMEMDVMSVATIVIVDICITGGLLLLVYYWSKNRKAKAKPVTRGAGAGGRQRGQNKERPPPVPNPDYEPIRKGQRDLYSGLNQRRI
substance,measurement,value
UCHT1 (antibody),MFI (arbitrary units),89200
